We go through one molecule from doi:10.1101/2023.10.06.561239 (bioRxiv, 2023).

The target in the experiment is T1, human DMC1, untagged, purified recombinant (human, UniProt Q14565 1-340).
T1 sequence (looked up): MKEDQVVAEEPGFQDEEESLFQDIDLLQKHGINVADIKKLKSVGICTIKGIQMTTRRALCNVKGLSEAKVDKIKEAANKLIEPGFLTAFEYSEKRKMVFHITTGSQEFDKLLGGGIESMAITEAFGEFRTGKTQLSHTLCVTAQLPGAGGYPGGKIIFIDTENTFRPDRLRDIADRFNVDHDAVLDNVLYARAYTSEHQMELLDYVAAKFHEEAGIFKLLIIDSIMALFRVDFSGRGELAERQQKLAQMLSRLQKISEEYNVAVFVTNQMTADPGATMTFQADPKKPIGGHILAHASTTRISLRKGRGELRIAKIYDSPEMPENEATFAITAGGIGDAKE
Description: pull-down.

B1: human his-GST-TEV-BRCA2 F2s3 (aa 2379-2433), wild type (domain or fragment, UniProt P51587 2379-2433, looked up)
chain: GHPFYQVSATRNEKMRHLITTGRPTKVFVPPFKTKSHFHRVEQCVRNINLEENRQ
With B1, the binding result is reported as “binds”.
